Tests used:
[1] = target: HBsAg-gp120 hybrid virus-like particles, gp120 89.6 with loop C deletion (424-432 …, beta 20-21 loop) (hepatitis B virus; HIV-1 strain 89.6); experiment: ELISA, gp120-HBsAg particles coated on the plate; mean of six experiments
[2] = target: HBsAg-gp120 hybrid virus-like particles, gp120 89.6 with loop C deletion (424-432 …, beta 20-21 loop) (hepatitis B virus; HIV-1 strain 89.6); experiment: ELISA, gp120-HBsAg particles coated on the plate
[3] = target: HBsAg-gp120 hybrid virus-like particles, gp120 89.6 with loop C deletion (424-432 …, beta 20-21 loop) (hepatitis B virus; HIV-1 strain 89.6); experiment: ELISA, half maximal binding compared, gp120-HBsAg particles coated on the plate

| Substance | fold increase of ELISA peak OD against 89.6 wild type [1] | fold increase of binding against 89.6 wild type [2] | peak OD as percent of the IIIB value (% of the IIIB value) [2] | shift in apparent affinity relative to 89.6 wild type [3] |
| --- | --- | --- | --- | --- |
| monoclonal IgG1 b12 (antibody) | 2.6 fold | 3 fold | 80 to 100 | – |
| monoclonal F105 (antibody) | 7.1 fold | > 10 fold | – | > 100 fold |
